# Experimental data as given in the supplement of paper PMC9112550, “Optimization of the antimicrobial peptide Bac7 by deep mutational scanning” (BMC Biology, 2022).
# Test system: Escherichia coli TOP10
# Assay: shrunken log2 fold change of peptide-encoding DNA abundance (4.5 h post-induction vs induction); higher = less antimicrobial activity (less host growth inhibition)
# Conditions: time post-induction: 4.5 h; library: site-saturation at positions 5, 18, 19, 20
# 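Further: peptides expressed intracellularly from a pBAD plasmid library in pooled LB shake-flask culture, induced with 0.3% L-arabinose, DNA abundance read by NGS, three biological replicates, DESeq2 with apeglm shrinkage.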
row,Sequence,shrunken log2 fold change
1,RRIRNRPPRLPRPRPRPWSKPRP,-0.167
2,RRIRHRPPRLPRPRPRPSMNPRP,-0.253
3,RRIRKRPPRLPRPRPRPHQTPRP,0.202
4,RRIRGRPPRLPRPRPRPTLCPRP,0.443
5,RRIRNRPPRLPRPRPRPWALPRP,-0.0675
6,RRIRARPPRLPRPRPRPIDEPRP,0.379
7,RRIRLRPPRLPRPRPRPMQIPRP,0.057
8,RRIRRRPPRLPRPRPRPLHWPRP,0.235
9,RRIRTRPPRLPRPRPRPSFYPRP,-0.343
10,RRIRLRPPRLPRPRPRPKFEPRP,0.0662
11,RRIRPRPPRLPRPRPRPAMYPRP,0.0514
12,RRIRWRPPRLPRPRPRPFVHPRP,-0.423
13,RRIRPRPPRLPRPRPRPINNPRP,0.81
14,RRIRKRPPRLPRPRPRPMTPPRP,0.334
15,RRIRKRPPRLPRPRPRPRAVPRP,0.849
16,RRIRQRPPRLPRPRPRPPHQPRP,0.363
17,RRIRFRPPRLPRPRPRPYESPRP,0.0128
18,RRIRSRPPRLPRPRPRPCTHPRP,-0.00194
19,RRIRFRPPRLPRPRPRPKYLPRP,-0.451
20,RRIRIRPPRLPRPRPRPWVDPRP,0.0772
21,RRIRCRPPRLPRPRPRPCHLPRP,-0.206
22,RRIRYRPPRLPRPRPRPYGPPRP,-0.143
23,RRIRNRPPRLPRPRPRPHILPRP,-0.106
24,RRIRSRPPRLPRPRPRPMTIPRP,-0.0727
25,RRIRLRPPRLPRPRPRPYGKPRP,-0.242

row,Sequence,shrunken log2 fold change
1,RRIRIRPPRLPRPRPRPAFDPRP,-0.295
2,RRIRMRPPRLPRPRPRPYYYPRP,-0.304
3,RRIRSRPPRLPRPRPRPFPPPRP,-0.0275
4,RRIRNRPPRLPRPRPRPLGGPRP,0.105
5,RRIRGRPPRLPRPRPRPTMCPRP,0.805
6,RRIRLRPPRLPRPRPRPHENPRP,0.0369
7,RRIRLRPPRLPRPRPRPTIHPRP,-0.3
8,RRIRIRPPRLPRPRPRPIFWPRP,0.397
9,RRIRWRPPRLPRPRPRPRSLPRP,-0.115
10,RRIRSRPPRLPRPRPRPSVPPRP,-0.634
11,RRIRDRPPRLPRPRPRPQPCPRP,-0.0957
12,RRIRKRPPRLPRPRPRPRVKPRP,-0.0843
13,RRIRDRPPRLPRPRPRPWDTPRP,-0.029
14,RRIRLRPPRLPRPRPRPEDVPRP,-0.0818
15,RRIRARPPRLPRPRPRPVWMPRP,0.0552
16,RRIRTRPPRLPRPRPRPTCNPRP,-0.533
17,RRIRFRPPRLPRPRPRPCLTPRP,-0.134
18,RRIRMRPPRLPRPRPRPMCWPRP,2.09
19,RRIRQRPPRLPRPRPRPASHPRP,0.189
20,RRIRDRPPRLPRPRPRPISGPRP,0.0039
21,RRIRPRPPRLPRPRPRPNDKPRP,-0.52
22,RRIRMRPPRLPRPRPRPNTVPRP,-0.162
23,RRIRKRPPRLPRPRPRPKINPRP,-0.116
24,RRIRCRPPRLPRPRPRPLYQPRP,-0.543
25,RRIRARPPRLPRPRPRPTKLPRP,-0.00644

row,Sequence,shrunken log2 fold change
1,RRIRGRPPRLPRPRPRPTWPPRP,0.52
2,RRIRHRPPRLPRPRPRPSWKPRP,-0.0518
3,RRIRYRPPRLPRPRPRPGLYPRP,-0.486
4,RRIRLRPPRLPRPRPRPTLWPRP,0.284
5,RRIRDRPPRLPRPRPRPGIKPRP,-0.165
6,RRIRKRPPRLPRPRPRPLVQPRP,0.459
7,RRIRERPPRLPRPRPRPCWYPRP,-0.0102
8,RRIRARPPRLPRPRPRPCTGPRP,-0.041
9,RRIRSRPPRLPRPRPRPEGYPRP,-0.0595
10,RRIRRRPPRLPRPRPRPNTMPRP,-0.262
11,RRIRDRPPRLPRPRPRPPSNPRP,0.137
12,RRIRCRPPRLPRPRPRPDPNPRP,-0.00486
13,RRIRIRPPRLPRPRPRPLTWPRP,-0.585
14,RRIRKRPPRLPRPRPRPRQLPRP,0.8
15,RRIRDRPPRLPRPRPRPACEPRP,0.58
16,RRIRSRPPRLPRPRPRPGGQPRP,0.279
17,RRIRVRPPRLPRPRPRPDMIPRP,-0.0118
18,RRIRARPPRLPRPRPRPQTDPRP,0.275
19,RRIRQRPPRLPRPRPRPCNHPRP,0.037
20,RRIRYRPPRLPRPRPRPHVSPRP,0.0324
21,RRIRWRPPRLPRPRPRPKEGPRP,0.538
22,RRIRCRPPRLPRPRPRPLCPPRP,-0.254
23,RRIRFRPPRLPRPRPRPEIGPRP,-0.0537
24,RRIRVRPPRLPRPRPRPSVMPRP,-0.15
25,RRIRRRPPRLPRPRPRPFQAPRP,0.376

row,Sequence,shrunken log2 fold change
1,RRIRCRPPRLPRPRPRPRPLPRP,0.319
2,RRIRSRPPRLPRPRPRPNSQPRP,-0.118
3,RRIRRRPPRLPRPRPRPNCLPRP,0.312
4,RRIRARPPRLPRPRPRPAHFPRP,0.25
5,RRIRTRPPRLPRPRPRPSKGPRP,-0.605
6,RRIRERPPRLPRPRPRPEQRPRP,0.32
7,RRIRCRPPRLPRPRPRPILHPRP,-0.575
8,RRIRIRPPRLPRPRPRPGQMPRP,-0.0223
9,RRIRERPPRLPRPRPRPNYNPRP,-1.1
10,RRIRHRPPRLPRPRPRPSSKPRP,-0.0453
11,RRIRNRPPRLPRPRPRPMHTPRP,0.0242
12,RRIRWRPPRLPRPRPRPHMCPRP,-0.00659
13,RRIRARPPRLPRPRPRPIDKPRP,0.236
14,RRIRYRPPRLPRPRPRPSYDPRP,-0.442
15,RRIRCRPPRLPRPRPRPFLDPRP,-0.0521
16,RRIRLRPPRLPRPRPRPCDTPRP,-0.131
17,RRIRCRPPRLPRPRPRPKRDPRP,5.21
18,RRIRDRPPRLPRPRPRPLAPPRP,0.607
19,RRIRTRPPRLPRPRPRPRLMPRP,0.119
20,RRIRQRPPRLPRPRPRPWKAPRP,-0.112
21,RRIRDRPPRLPRPRPRPNLDPRP,-0.103
22,RRIRTRPPRLPRPRPRPPFRPRP,0.693
23,RRIRARPPRLPRPRPRPNLSPRP,-0.0536
24,RRIRVRPPRLPRPRPRPECDPRP,0.247
25,RRIRSRPPRLPRPRPRPLAVPRP,0.0333

row,Sequence,shrunken log2 fold change
1,RRIRGRPPRLPRPRPRPKMSPRP,0.344
2,RRIRCRPPRLPRPRPRPHGGPRP,-0.154
3,RRIRPRPPRLPRPRPRPVQKPRP,0.0644
4,RRIRLRPPRLPRPRPRPEQHPRP,0.243
5,RRIRSRPPRLPRPRPRPGLIPRP,0.142
6,RRIRRRPPRLPRPRPRPGTEPRP,0.443
7,RRIRKRPPRLPRPRPRPRIKPRP,0.185
8,RRIRARPPRLPRPRPRPWSFPRP,-0.00357
9,RRIRYRPPRLPRPRPRPLHMPRP,-0.116
10,RRIRERPPRLPRPRPRPDLPPRP,-0.156
11,RRIRMRPPRLPRPRPRPKEFPRP,0.103
12,RRIRKRPPRLPRPRPRPKGKPRP,0.302
13,RRIRHRPPRLPRPRPRPLCVPRP,2.97
14,RRIRTRPPRLPRPRPRPRSEPRP,0.116
15,RRIRCRPPRLPRPRPRPGLDPRP,0.191
16,RRIRERPPRLPRPRPRPYFGPRP,-0.673
17,RRIRSRPPRLPRPRPRPNVFPRP,-0.075
18,RRIRYRPPRLPRPRPRPEEHPRP,0.0203
19,RRIRWRPPRLPRPRPRPADAPRP,0.739
20,RRIRQRPPRLPRPRPRPPGMPRP,0.256
21,RRIRARPPRLPRPRPRPTGIPRP,0.0125
22,RRIRQRPPRLPRPRPRPTLSPRP,0.322
23,RRIRPRPPRLPRPRPRPNREPRP,0.026
24,RRIRARPPRLPRPRPRPFFLPRP,-0.0057
25,RRIRQRPPRLPRPRPRPCNPPRP,-0.0715
